Consider six molecules from article PMC11144326, “Structure–function characterization of two enzymes from novel subfamilies of manganese peroxidases secreted by the lignocellulose-degrading Agaricales fungi Agrocybe pediades and Cyathus striatus” (Biotechnology for Biofuels and Bioproducts, 2024).

Data set [1] deals with Ape-MnP1. The settings on record: read-out: Ape-MnP1 Q333P; 0.3 mM H2O2, 100 mM sodium tartrate, optimal pH, 25 °C.
Data set [2] deals with Ape-MnP1. Briefly: steady-state oxidation, coerulignone formation at […] nm. The data set is classed as biochemical, Agrocybe pediades. Particulars: 0.3 mM H2O2, 100 mM sodium tartrate, optimal pH, 25 °C; read-out: Ape-MnP1 Q333P.
Substrate in data set [3]: CCn1c(=NN=c2sc3cc(S(=O)(=O)O)ccc3n2CC)sc2cc(S(=O)(=O)O)ccc21
Briefly: purified protein. The class given is biochemical, Cyathus striatus. The settings on record: 0.3 mM H2O2, 100 mM sodium tartrate, optimal pH, 25 °C.

Substrate in data set [4]: COc1cccc(OC)c1O
The data set is described as follows: purified protein. The settings on record: 0.3 mM H2O2, 100 mM sodium tartrate, optimal pH, 25 °C. The data set is classed as biochemical, Cyathus striatus.

Substrate in data set [5]: CCn1c(=NN=c2sc3cc(S(=O)(=O)O)ccc3n2CC)sc2cc(S(=O)(=O)O)ccc21
Briefly: purified protein. The data set is classed as biochemical, Agrocybe pediades. Particulars: 0.3 mM H2O2, 100 mM sodium tartrate, optimal pH, 25 °C.

Substrate in data set [6]: COc1cccc(OC)c1O
Briefly: purified protein. The class given is biochemical, Agrocybe pediades. The settings on record: 0.3 mM H2O2, 100 mM sodium tartrate, optimal pH, 25 °C.

Where two headings read alike, the source gives them in different places.

As for `CCn1c(=NN=c2sc3cc(S(=O)(=O)O)ccc3n2CC)sc2cc(S(=O)(=O)O)ccc21` [ABTS], the Km with Ape-MnP1 [1] was 1890 ± 250 µM.
With `COc1cccc(OC)c1O` [DMP], the Km in the data set with Ape-MnP1 [2] came to 2900 ± 590 µM.

B1: Cst-MnP1 (Cyathus striatus) (protein)
chain: VTCPDGHVTANRACCALFPVVQNLQENLFDGGECGEEAHSALRLSFHDAIGFSLNSNKGGGADGSILLFNATELTFHANGGIDDITSRQFPVFETTGLTPGDFVHLAGAVGTANCPGAPRLQFMFGRPPPIAPAPDLTVPEPTDDVDAILARFADAGFDASEVVALLSSHTIAAADVVDVTIPGTPFDSTVGTFDTQVFLEVLLAGRSFPGNGSQPGEVLSPLAGEMRLQSDFVVSRDSRTACLWQAMVNNQQLMVSSFAAAMAKLQVLGQNVNTMVDCSDVIPEPAPFAGPIKFPASFSMADVEQACASTFPQIQTVAGPAPTVAPVPGS
Broadly, the kcat is the maximal rate divided by the concentration of active sites. As usually defined, the kcat/Km is the second-order rate constant that governs catalysis at low substrate concentration. In the case of B1, in the data set “purified protein [3]”, the Km was 3250 ± 220 µM, the kcat was 60 ± 1.4 s⁻¹ and the kcat/Km came out at 18000 ± 1300 M⁻¹ s⁻¹. Moreover, in “purified protein [4]”, the Km is 4650 ± 560 µM, the kcat turned out to be 4.2 ± 0.2 s⁻¹ and the kcat/Km is 980 ± 120 M⁻¹ s⁻¹.

B2: Cst-MnP1 (Cyathus striatus; S40A) (protein)
chain: VTCPDGHVTANRACCALFPVVQNLQENLFDGGECGEEAHAALRLSFHDAIGFSLNSNKGGGADGSILLFNATELTFHANGGIDDITSRQFPVFETTGLTPGDFVHLAGAVGTANCPGAPRLQFMFGRPPPIAPAPDLTVPEPTDDVDAILARFADAGFDASEVVALLSSHTIAAADVVDVTIPGTPFDSTVGTFDTQVFLEVLLAGRSFPGNGSQPGEVLSPLAGEMRLQSDFVVSRDSRTACLWQAMVNNQQLMVSSFAAAMAKLQVLGQNVNTMVDCSDVIPEPAPFAGPIKFPASFSMADVEQACASTFPQIQTVAGPAPTVAPVPGS
Regarding B2, in “purified protein [3]”, the Km was 2990 ± 455 µM, the kcat came out at 112 ± 4.6 s⁻¹ and the kcat/Km came to 37500 ± 5900 M⁻¹ s⁻¹.

B3: Cst-MnP1 (Cyathus striatus; E36A) (protein)
chain: VTCPDGHVTANRACCALFPVVQNLQENLFDGGECGAEAHSALRLSFHDAIGFSLNSNKGGGADGSILLFNATELTFHANGGIDDITSRQFPVFETTGLTPGDFVHLAGAVGTANCPGAPRLQFMFGRPPPIAPAPDLTVPEPTDDVDAILARFADAGFDASEVVALLSSHTIAAADVVDVTIPGTPFDSTVGTFDTQVFLEVLLAGRSFPGNGSQPGEVLSPLAGEMRLQSDFVVSRDSRTACLWQAMVNNQQLMVSSFAAAMAKLQVLGQNVNTMVDCSDVIPEPAPFAGPIKFPASFSMADVEQACASTFPQIQTVAGPAPTVAPVPGS
As for B3, in “purified protein [3]”, the Km came out at 1900 ± 455 µM, the kcat amounted to 67 ± 18 s⁻¹ and the kcat/Km is 35500 ± 12800 M⁻¹ s⁻¹. Further, in the data set “purified protein [4]”, the Km came to 2120 ± 500 µM, the kcat was determined as 2.62 ± 0.17 s⁻¹ and the kcat/Km was 1240 ± 300 M⁻¹ s⁻¹.

B4: Ape-MnP1 (Agrocybe pediades) (protein)
chain: TICADGTSVANGACCKLIPVVKDLTENLFEGECGDAAHGALRLVFHDAIAISPTLGGGGADGSIAVFNATELTFHANTGIDDVLDAVGPFLLKHSDVMTPGDFIQLAGAVSLTQCNGAPRVKFVMGRPPPKAAAPNLLVPEPFDSVATILQRFGELGFTKEETVAVIGGSHSVAGADDIVPNEQGIPFDQTPSIFDTQIFVDVQLRGTMIPGNGTTEGEVETAVPGTVRLQSDHLLARDASTSCIWQSFVNQQSKMAQVFGEAIFKMSLLGQTQSKLIDCSEVIPRAIPFSHGPATLPPGQTLKDIEQACAASPFPTLSTQPGPVTSVPAIPQADDS
Turning to B4, in the data set “purified protein [5]”, the Km was determined as 2730 ± 280 µM, the kcat was determined as 146 ± 6 s⁻¹ and the kcat/Km was 53000 ± 6000 M⁻¹ s⁻¹. In “purified protein [6]”, the Km turned out to be 2880 ± 490 µM, the kcat came out at 11.5 ± 0.8 s⁻¹ and the kcat/Km was found to be 4200 ± 500 M⁻¹ s⁻¹.
